Results: the nanobody polyreactivity screen of Harvey et al. (2022)

Experiment: yeast display, Sf9 membrane polyspecificity reagent, FACS + sequencing; frameworks hold sequencing errors
Method in brief: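 A synthetic nanobody library was expressed on Saccharomyces cerevisiae BJ5465 by galactose induction for 36–48 hours. The library was stained for 1 hour at 4 °C with 10% biotinylated, detergent-solubilized Sf9 membrane reagent and enriched with streptavidin microbeads before FACS. Low and high (top ~1%) gates were set on anti-HA fluorescence for expression and streptavidin fluorescence for reagent binding, and each polyreactivity label reflects the gate of origin.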

Row | Sequence | polyreactivity (PSR sort gate)
1 | QVQLVESGGGLVQAGGSLRLSCAASGRIFRYYAMGWYRQAPGKETELVAAISKSGGGTFYADSVKGRFTISRDNAKNPVYLQMNSLKPEDTAVYYCAARDKGLGKHDYWGQGTQVTVSS | high polyreactivity
2 | QVQLVESGGGLVQAGGSLRLSCAASGSIFTSYGMGWYRQAPGKERELVAAITYSGDRTYYADSVKGRFTISRDNAKITVYLQMNSLNPEDTAVYYCNVAYVYGSFRRRPMGYWGQGTQVTVSS | high polyreactivity
3 | QVQLVESGGGLVQAGGSLRLSCAASGGIFRWYAMGWYRQAPGKEREFVAVITTDGGSTYYADSVKGRFTISRDNAKNTVYLQMNSLKPEDTAVYYCAADYTLIYDYWGQGTQVTVSS | low polyreactivity
4 | QVQLVESGGGLVQAGCSLLLICADSGFIFYGYVMGWYRQAPGKEMEWVAGITSSGTSTYADSVKGRFTISRDNAKNTVFLQMNSLKPEDTAAYYCAALRRQYGARDYDYWGQGTQVTVSA | low polyreactivity
5 | QVQLVESGGGLVQAGGSLRLSCAASGFTFNSYAMGWYRQAPGKERELVAAISWSGGSTYYADSVKGRFTISRDNAKNTVYLQMNSLKPEDTAVYYCNRDGLSRPYYYWGQGTQVTLSS | high polyreactivity
6 | QVQLVESGGGLVQAGGSLRLSCAASARTLAHYTMGWYRQAPGKERELVAAITFSGGRTYYADSVKGRFTISRDTAKNTVYLQMNSLKPEDTAVYYCNADGYWVVPLDDSYEYWGQGTQVTVSS | low polyreactivity
7 | QVQLVESGGGIVQAGGSLRLSCAASGSTSRDYAMGWYRTAPGKERELVAAITWSGGRTYYADSVKGRFTISRDNAKNTVYLQMNSLKPEDTAVYYCAAYHREGRRDDYWGQGTQVTVSS | low polyreactivity
8 | QVQLVESGGGLVQAGGSHRLSCAASGRTFYYNAMGVYRQAPGKERELVAGITRSGSSTYYADSVKGRFTISRVNAKNTVYLQMNSLKPEDTAVYYCATRRSGYYSFYYWGQGTQVTVSS | high polyreactivity
9 | QVQLVESGGGLVQEGGSLRLSCAASGYIFWSNTMGWYRQAPGKERELVAAISQSTASTYYADSVKGRFTISRDNAKNTVYLQMNSLKPDDTAVYYCAADGWSRSWGYWVHYGYWGQGTQVTVSS | low polyreactivity
10 | QVQLVESGGGLVQAGGSLRLSCAASGSIFYYNAMGWYRQAPGKEREFVAAITISGGDTYYADSVKGRFTISRDNAKNTVYLQMNSLKPEDTAVYYCAAESYRGYDYWGQGTQVTVSS | high polyreactivity
11 | QVQLVESGGGLVQAGGSLRLSCAASGSIFVHYAMGWYRQAPGKERELVAAISRSGGSTYYADSVKGRFTISRDNAKNTFYLQMNSLKPEDTAVYYCAADSGYLSPYDYWGHGTQVTVSS | low polyreactivity
12 | QDQLVESGGGLVQWGRSLGIRCAASGRIFNVKAMGWYRQAPGNEREFDAAISGSVGSTYYADSVKGRFTISRDNAKYSVYLQHNSLKRLDTAVYYCAARYGYDRNRRPGYVYWGQGTQVTVSS | low polyreactivity
13 | QVQLVESGGGLVQAGGSLRLSGAASGFIFGYYAMGWYRQAPGKERELVAAITSRGGSTYYADSVKGRFTISRDNAKNTVYLQMNSLKPEDTAVYYCAAGYNGYGLQYYYWGQGTQVTVSS | high polyreactivity
14 | QVQLVESGGGLVQAGGSLRLSCAASGRTIIFNAMGWYRPAPGKERELVAAISSGGGTNYADSVKGRFTISRDNAKNTVYLQMNSLKPEDTAVYYCAADPRDHYSYVYDGYKYDYWGQGTQVTVSS | low polyreactivity
15 | QVQLVESGGGLVQAGGSLRLSSAASGRIFSRYTMGWYRQAPGKERELVAAISWIGTRTYYADSVKGRFTISRDNAKNTVYLQMNSLKPEDTAVYYCNAVFGGYYGYVSNYKFDYWGHGTQVTVSS | high polyreactivity
16 | QVQLVESGGGLVQAGGSLRLSCAASGRIFAVNAMGWYRQAPGKERELVATINSGGNTNYADSVKGRFTISRDNAKNTVYLQMNSLKPVDTAVYYCAARAFSAWLEMDYWGQGTQVTVSS | low polyreactivity
17 | QVQLVESGGGLVQAGGSFRLSCAASGSIFDGYAMGWYRQAPGTERELVAAISSGGDSTYYADSVKGRFTISRDNAKNTVYLQMNSLKPEDTAVYYCNADSLVGHSYDYWGQGTQVTVSS | low polyreactivity
18 | QVQLVESGGGLVQAGGSLRLSCAASGITFNYYTMVWYRQAPGKERELVARITISGGSTYYADSVKGRFTISRDNAKNTVDFQMYSLKPEDTAVYYCNVRLYGYRHDYWGQGTQVTVSS | high polyreactivity
19 | QVQLVESGAGLVQAGGSLRLSCAASGYTFSKNTMGWYRQAPGKERELVAAISRSGGSTYYADSVKGRFTISRDNAKNTFYLQMNSLKPEDTAVYYSAKRVSTYGFSGYDYWGQGTQVTVSS | high polyreactivity
20 | QVQQLESGGGLVQAGGSLRLSSAASGTIFRISDMGSYRQAPGTEREFVAAITYGANTYYADSGKGRFTISRDNAKNTVYRQMNSLKPDDTAVYDCAVPPVKESILDYWGQGTQVTVSR | low polyreactivity
21 | QVQLVESGGGLVQAGGSLRLSCAASGRTFGTYAMGWYRQAPGKERELVASITSGDSTNYADSVKGRFTISRDYAKNTVYLQMNSLKPEDTAVYYCNARGDVIVTPPKFSFNYEYWGQGTQVTVSS | low polyreactivity
22 | QVQLVESRGGLVPAGGSLRLSCAASGSTVRDYTMGRYRQAPGKEREVGAAITRRSASTYYADSVKGRFTISRDNAKNTVYLQLNSLKPEDTAVYYCAVRTNGPFEYWGQGTQVTVSS | high polyreactivity

Row | Sequence | polyreactivity (PSR sort gate)
23 | QVQLVESGGGLVQAGGSLRLSCASSGSTFPSYAMGWYRQAPGKERELVAAINSGGGTNYADSVKGRFTISRDNAKNTVYLQMNSLKPEDTAVYYCAAYEGTYFTEVDYWGQGTQVTVSS | low polyreactivity
24 | VQLVESGGGLVQAGGSLRLSCAASGRIFSNNAMGWYRQAPGKEREFVAAITTSAGRTYYADSVKGRFTISRDNAKNTVYLQMNSLKPEDTAVYYCAAEPRQYWEYNYWGQGTQVTVSS | high polyreactivity
25 | QVQLVESGGGLVQAGGSLRLSCAASGITFYGYAMGWYRHAPGKERELVATISSGGGTNYADSVKGRFTISRDNAKNTVYLQMNSLKPEDSAVYYCATDLSTVDYNYWGQGTQVTVSS | low polyreactivity
26 | QVQLVESGGGLVQAGGSLRLSCAASGFTSLGNAMGWYRQAPGKERELVAAISRSGGRTYYADSVKGRFTISRDNAKNTVYLQMNSLKPEDTAVYYCNAVRLYGQGGDYWGQGTQVTVSS | high polyreactivity
27 | QVQLVESGGGLVQAGGSLRLSCAASGRTFFPNEMGWYRQAPGKERELVAAITSAGSTNYADSVKGRFTISRDNEKTTVYLQMNSLKPEETAVYYCAAVYPPIHQRYIVDYWGQGTQETVSS | low polyreactivity
28 | QVQLVESGGGLVQAGGSLRLSCAASGFIFTYYAMGWYRQAPGKERELVAAIRRGGNTYYADSVKGRFTISRDNAKNTVYLQMNSLKPEDTAVYYCAASAGPRASYYYWGQGTQVTVSS | high polyreactivity
29 | QVQLVESGGGLVQAGGSLRLSCAASGRIFSAYAMGWYRQAPGKEREFVAAISARGGSTNYADSVKGRFTISRDNAKNTVYLQMNSLNPEDTAVYYCNDRYVQWYWIAKVIHIDNDYWGQGTQVTVSS | low polyreactivity
30 | QVQLVESGRGLVQAGGSLRLSCAASGRIFGVYGRGWYRQAPGKERELVAAISWSGATTYYADSVKGRFTISRDNAKNTVYLQMHSLKPEDTAVYYCAADFGWFYDGVAVWFIRILGDYWGQGTQVTVSS | low polyreactivity
31 | QVQLVESGGGLVQAGGSLRLSCAASGSIFLRYAMGWYRQAPGKERELVAGITSGGSTNYADSVKGRFTISRDNAKNCVYLQMNSLKPEDTAVYYCNKDLPDWGHEWNGDSWGQGTQVTVSS | low polyreactivity
32 | QVQHVESGGGLVQAGGSLRLSCAASGSTFYYYAMGWYRQAPGKERELVAAIRSDVSTNYADSVKGRFTISRDNAKNTVYLQMNSLKPEDTAVYYCAARFPWNRVTYDYWGQGTQVTVSS | low polyreactivity
33 | QVQLVESGGGLVQAGGSLRLSCAASGIIFDRYAMGWYRQAPGKERELVAAISWSGGRTYYADSVKGRFTISRDNAKNTVYLQMNSLKPEDTAVYYCAAKPSVDLDYWGQGTQVTVSS | high polyreactivity
34 | QVQLVESGGGLVQAGGSLRLSCSACGFIFPSYVMGWYRQAPGKERELVATISRSGGSTYYADSVKGRFTISRDNAKNTVYLQMNSLKPEDTAVYYCATRRRCRYSPYSPYDYWGQGTQVTVTS | high polyreactivity
35 | QVQLVESGGGLVQAGGSLRLRCAASGRTFSGYAMGWYRQSPGKERELVAAITASGSSTYYADSVKGRFTSSRDNAKNTVDLQMNSLKPEDTAVYYCAADYTGDWADGPHSLREYDYWGQGTQVTVSS | low polyreactivity
36 | QVQLVESGGGLVQAGGSLRLSCAASGRIFPAYAMGWYRQAPGKERELVAAITGGGSTNYADSVKGRFTISRDNAKHTVYLQMNSLKPEDTAVYYCNAAVVWPNRQENDYWGQGTQVTVSS | low polyreactivity
37 | QEHLVESGGGLVQAGGSLRLSCAAYGSIFVSYAMGWYRQAPGKERELVAAISWSGGSTYYADSVKGRFTISRDNAKNTVYLQMNSLKPEDTAVYYCNGVPSEGFDWGQGTQVTVSS | low polyreactivity
38 | QVQLVESGGALVQAGGSLRLSCAASGRIFGVNAMGWYRQAPGKERELVAAITSRGGSTYYADSVKGRFTISRDNAKNTVYLQMHSLTPEDTEVYYCRGWRYFTDKTYDYWGQGTQVTVSS | high polyreactivity
39 | QVQLVESGGGLVQAGGSLRLSCAASGSIFLGNAMGWYRQAPGKERELVAGITNGDNTNYADSVKGRFTISRDNAKNTDYLQMNSLKPEDTAVYYCATGPYLIYDYWGQGTQVTVSS | low polyreactivity
40 | QDQLVESGGGLVQAGGSLRLTCAASGSIIVRYAMGWYRQAPGKERELVASISKRGGSTYYADSVKGRFTISRDNAKNTVYLQMNSLKPEDTAVYYCAAVGYYLVKFDYWGQGTQVTVSS | high polyreactivity
41 | QVQLVESGGGLVQAGGSLRLSCAASGINIRYYAMGWYRQAPGKERELVADITTGGTTYYADSVKGRFTISRDNAKNTVYLQMNSLKPEDTAVYYCAAYYFPTYSKTYIYPFDYWGQGTQVTVSS | low polyreactivity
42 | QVQLVESGGGLVQAGGSLRLSCAASGFTFGNYAMGWYRQAPGKERELVAVISYSTGSTYYADSVKGRFTISRDNAKNTVYLQMNSLKPEDTAVYYCAKRYRSYYQGYGYWGQGTQVTVSS | high polyreactivity
43 | QVQLQVRGGDLVQAGGSLRLSCAASGTIYRLTTMGWYRQAPGKEREFVAAITDGGNTNYADSVKGRFTISRDNAKNTVYLQMICLKPEDTAVYYCAVLFSDDAYYAYWGQGTQVTVSS | low polyreactivity
